In patent US10450368 (DUKE UNIVERSITY, dated 2019):

How the values were obtained:
CH0505_CON D7gp120/293i = assay: ELISA
CH505w020.14D8gp120 = target: T1, CH505w020.14D8gp120; assay: ELISA
T1 construct: also called CH505w20.14 gp120

CH505w030.20D8gp120/293F = target: T2, CH505w030.20D8gp120/293F; assay: ELISA
T2 construct: also called CH505w30.20 gp120

CH505.w30.12D8gp120 = target: T3, CH505.w30.12D8gp120; assay: ELISA
T3 construct: also called CH505w30.12 gp120

CH505w136.B18D8gp120 = assay: ELISA
CH505.M5D8gp120293F = assay: ELISA
CH505.M10D8gp120 = assay: ELISA
CH505.M11D8gp120/293F = assay: ELISA
CH505.M19D8gp120 = assay: ELISA
CH505.M21D8gp120/293F = assay: ELISA
CH505.M9D8gp120/293F = assay: ELISA
CH505.M7D8gp120/293F = assay: ELISA
CH505.TF mutant gp120 M6 [1] = target: T4, CH505.TF mutant gp120 M6 (HIV-1); assay: ELISA
T4 construct: domain: gp120

CH505.TF mutant gp120 M8 = target: T5, CH505.TF mutant gp120 M8 (HIV-1); assay: ELISA
T5 construct: domain: gp120

[2] = target: T6, CH505.TF mutant gp120 M20 (HIV-1); assay: ELISA
T6 construct: domain: gp120

SSA [3] = target: T7, SSA; assay: AtheNA, Ab 25 ug/ml
T7 construct: also called SSA (Ro)
Description: (§1) AtheNA Multi-Lyte ANA Plus Test System is one such assay. This is luminex-based assay, which is also used to screen patient sera.

Sm (Smith antigen) [4] = target: T8, Sm (Smith antigen); assay: AtheNA, Ab 25 ug/ml
T8 construct: Protein complex
Description: as §1

RNP (ribonucleoprotein) [5] = target: T9, RNP (ribonucleoprotein); assay: AtheNA, Ab 25 ug/ml
T9 construct: Protein-RNA complex
Description: as §1

Centromere B [6] = target: T10, Centromere B (UniProt P07199 1-599); assay: AtheNA, Ab 25 ug/ml
T10 construct: also called Cent B
T10 sequence: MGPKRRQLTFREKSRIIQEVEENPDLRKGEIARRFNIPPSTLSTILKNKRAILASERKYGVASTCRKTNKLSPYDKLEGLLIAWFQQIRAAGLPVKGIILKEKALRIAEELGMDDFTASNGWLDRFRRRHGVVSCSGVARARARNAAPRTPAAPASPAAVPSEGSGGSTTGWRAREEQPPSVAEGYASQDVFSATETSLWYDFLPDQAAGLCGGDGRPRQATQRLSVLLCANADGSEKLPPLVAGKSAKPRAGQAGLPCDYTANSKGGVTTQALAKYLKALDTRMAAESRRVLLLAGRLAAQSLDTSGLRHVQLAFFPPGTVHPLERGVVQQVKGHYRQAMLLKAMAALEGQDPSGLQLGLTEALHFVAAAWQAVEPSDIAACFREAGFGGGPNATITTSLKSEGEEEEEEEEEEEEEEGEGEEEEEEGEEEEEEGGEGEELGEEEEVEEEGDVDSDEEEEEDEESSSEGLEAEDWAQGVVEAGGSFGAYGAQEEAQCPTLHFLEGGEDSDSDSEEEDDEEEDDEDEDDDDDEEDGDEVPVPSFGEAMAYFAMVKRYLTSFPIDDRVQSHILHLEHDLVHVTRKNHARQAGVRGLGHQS
Description: as §1

Histones [7] = target: T11, Histones; assay: AtheNA, Ab 25 ug/ml
T11 construct: Mixture of proteins
Description: as §1

SSA [8] = target: T7, SSA; assay: AtheNA, Ab 50 ug/ml
Description: as §1

Sm (Smith antigen) [9] = target: T8, Sm (Smith antigen); assay: AtheNA, Ab 50 ug/ml
Description: as §1

RNP (ribonucleoprotein) [10] = target: T9, RNP (ribonucleoprotein); assay: AtheNA, Ab 50 ug/ml
Description: as §1

Centromere B [11] = target: T10, Centromere B; assay: AtheNA, Ab 50 ug/ml
Description: as §1

Histones [12] = target: T11, Histones; assay: AtheNA, Ab 50 ug/ml
Description: as §1

SSA [13] = target: T7, SSA; assay: AtheNA, Ab 12.5 ug/ml
Description: as §1

Sm (Smith antigen) [14] = target: T8, Sm (Smith antigen); assay: AtheNA, Ab 12.5 ug/ml
Description: as §1

RNP (ribonucleoprotein) [15] = target: T9, RNP (ribonucleoprotein); assay: AtheNA, Ab 12.5 ug/ml
Description: as §1

Centromere B [16] = target: T10, Centromere B; assay: AtheNA, Ab 12.5 ug/ml
Description: as §1

Histones [17] = target: T11, Histones; assay: AtheNA, Ab 12.5 ug/ml
Description: as §1

SSA [18] = target: T7, SSA; assay: AtheNA, Ab 6.25 ug/ml
Description: as §1

Sm (Smith antigen) [19] = target: T8, Sm (Smith antigen); assay: AtheNA, Ab 6.25 ug/ml
Description: as §1

RNP (ribonucleoprotein) [20] = target: T9, RNP (ribonucleoprotein); assay: AtheNA, Ab 6.25 ug/ml
Description: as §1

Centromere B [21] = target: T10, Centromere B; assay: AtheNA, Ab 6.25 ug/ml
Description: as §1

Histones [22] = target: T11, Histones; assay: AtheNA, Ab 6.25 ug/ml
Description: as §1

Con S gp120 = assay: direct-binding ELISA (OD450), panel 'Con S gp120'
CH505.TF mutant gp120 M6 [23] = target: T4, CH505.TF mutant gp120 M6; assay: direct-binding ELISA (OD450), panel 'CH505.TF gp120 M6'
CH505.TF gp120 delta371I = assay: direct-binding ELISA (OD450), panel 'CH505.TF gp120 delta371I'

B1: CH491 (antibody, V domains shown)
VH: QVQLVQSGAAVKRPGASVTISCRASGYTFTTYYIHWVRQAPGQGLELMGWINPRGGRTDYSYRFEDRVSMYRDTSMSIVYMDLRNLKSADTAVYYCVRNVGTSGSLLHYDFWGQGSLVTVSS
VL: EIVLTQSPATLSVSPGERVTLSCRASQSVRNNLAWYRQKRGQAPRLLIYGASTRATGIPARFSGSGSGTEFTLTISSMQSEDFAVYYCQQYNNWWTFGQGTKVEIK
notes: also called CH235.7; DH491
- LogAUC (CH0505_CON D7gp120/293i): 9.64
- LogAUC (CH505w020.14D8gp120): 9.35
- LogAUC (CH505w030.20D8gp120/293F): 8.82
- LogAUC (CH505.w30.12D8gp120): 3.89
- LogAUC (CH505w136.B18D8gp120): 3.53
- LogAUC (CH505.M5D8gp120293F): 10.6
- LogAUC (CH505.M10D8gp120): 10.6
- LogAUC (CH505.M11D8gp120/293F): 6.75
- LogAUC (CH505.M19D8gp120): 6.61
- LogAUC (CH505.M21D8gp120/293F): 0
- LogAUC (CH505.M9D8gp120/293F): 0
- LogAUC (CH505.M7D8gp120/293F): 0
- LogAUC (CH505.TF mutant gp120 M6 [1]): 9.21
- LogAUC (CH505.TF mutant gp120 M8): 0
- LogAUC [2]: 0
- AtheNA signal (SSA [3]): 44
- AtheNA signal (Sm (Smith antigen) [4]): 4
- AtheNA signal (RNP (ribonucleoprotein) [5]): 30
- AtheNA signal (Centromere B [6]): 45
- AtheNA signal (Histones [7]): 44
- AtheNA signal (SSA [8]): 68
- AtheNA signal (Sm (Smith antigen) [9]): 6
- AtheNA signal (RNP (ribonucleoprotein) [10]): 43
- AtheNA signal (Centromere B [11]): 54
- AtheNA signal (Histones [12]): 59
- AtheNA signal (SSA [13]): 28
- AtheNA signal (Sm (Smith antigen) [14]): 3
- AtheNA signal (RNP (ribonucleoprotein) [15]): 24
- AtheNA signal (Centromere B [16]): 34
- AtheNA signal (Histones [17]): 34
- AtheNA signal (SSA [18]): 21
- AtheNA signal (Sm (Smith antigen) [19]): 4
- AtheNA signal (RNP (ribonucleoprotein) [20]): 18
- AtheNA signal (Centromere B [21]): 26
- AtheNA signal (Histones [22]): 26
- EC50 (read off the curve) (Con S gp120): ~0.05 µg/mL
- EC50 (read off the curve) (CH505.TF mutant gp120 M6 [23]): ~0.2 µg/mL
- EC50 (read off the curve) (CH505.TF gp120 delta371I): ~8 µg/mL
